Source: the RNAGym collection of RNA variant scans (doi:10.7554/elife.80360)

B1: Twister Ribozyme (parent)
chain: AACACUGCCAAUGCCGGUCCCAAGCCCGGAUAAAAGUGGAGGGGGCGG

Variants of: B1
Assay: self-cleavage, relative activity (ratio to wild type); higher = more cleavage; co-transcriptional

Variant	self-cleavage
AACACUGCCAAUGCCGGUUCCAAACCCGGAUAAAAGUGGAGGGGGCGG [C19U G24A]	0.0904
AACACUGCCAAUGCCGGUUCCAAUCCCGGAUAAAAGUGGAGGGGGCGG [C19U G24U]	0.0889
AACACUGCCAAUGCCGGUGCCAAGCCCGGAUAAAAGUGGAGGGGACGG [C19G G45A]	0.321
AACACUGCCAAUGCCGGUUCCAAGCCCGGAUAAAAGCGGAGGGGGCGG [C19U U37C]	0.242
AACACUGCCAAUGCCGGUCACAAGCCCGGAUAAAAGUGGAGGGGACGG [C20A G45A]	0.144
AACACUGCCAAUGCCGGUCACAAGCCCGGAUAAAAGUGGAGGGGUCGG [C20A G45U]	0.17
AACACUGCCAAUGCCGGUCACAAGCCCGGAUUAAAGUGGAGGGGGCGG [C20A A32U]	0.186
AACACUGCCAAUGCCGGUUCCAAGCCCGGAUUAAAGUGGAGGGGGCGG [C19U A32U]	1.02
AACACUGCCAAUGCCGGUCACAAGCCCGGAUAAAAGUUGAGGGGGCGG [C20A G38U]	0.0791
AACACUGCCAAUGCCGGUCACAAGCCCGGAUAAAAGUCGAGGGGGCGG [C20A G38C]	0.0639
AACACUGCCAAUGCCGGUGCCAAGCCCGGAUAAAAGUGGACGGGGCGG [C19G G41C]	0.136
AACACUGCCAAUGCCGGUGCCAAGCCCGGAUAAAAGUGGAAGGGGCGG [C19G G41A]	0.113
AACACUGCCAAUGCCGGUGCCAAGCCCGGAUAAAAGUGGAUGGGGCGG [C19G G41U]	0.104
AACACUGCCAAUGCCGGUCACAAGCCCGGCUAAAAGUGGAGGGGGCGG [C20A A30C]	0.109
AACACUGCCAAUGCCGGUCACAAGCCCGGUUAAAAGUGGAGGGGGCGG [C20A A30U]	0.175
AACACUGCCAAUGCCGGUCACAAGCCCGGAUAAAAGUGGAGGGGGCGC [C20A G48C]	0.169
AACACUGCCAAUGCCGGUCACAAGCCCGGAUAAAAGUGGAGGGGGCUG [C20A G47U]	0.103
AACACUGCCAAUGCCGGUCAAAAGCCCGGAUAAAAGUGGAGGGGGCGG [C20A C21A]	0.0664
AACACUGCCAAUGCCGGUCAUAAGCCCGGAUAAAAGUGGAGGGGGCGG [C20A C21U]	0.0931
AACACUGCCAAUGCCGGUCAGAAGCCCGGAUAAAAGUGGAGGGGGCGG [C20A C21G]	0.0829
AACACUGCCAAUGCCGGUCACAAGCCCGGAUAAAAGUGGAGGGAGCGG [C20A G44A]	0.198
AACACUGCCAAUGCCGGUCACAAGCCCGGAUAAAAGUGGAGGGUGCGG [C20A G44U]	0.107

Variant	self-cleavage
AACACUGCCAAUGCCGGUGCCAAGCCCGGAUAAAAGUGGAGAGGGCGG [C19G G42A]	0.0847
AACACUGCCAAUGCCGGUCACAAGCCCGGAUAAAAAUGGAGGGGGCGG [C20A G36A]	0.0747
AACACUGCCAAUGCCGGUUCCAAGCCCGGAUAAAAGUGGAGGGGGCGA [C19U G48A]	0.915
AACACUGCCAAUGCCGGUUCCACGCCCGGAUAAAAGUGGAGGGGGCGG [C19U A23C]	0.117
AACACUGCCAAUGCCGGUCACAAGCCUGGAUAAAAGUGGAGGGGGCGG [C20A C27U]	0.0852
AACACUGCCAAUGCCGGUCACAAGCCAGGAUAAAAGUGGAGGGGGCGG [C20A C27A]	0.0891
AACACUGCCAAUGCCGGUCACAAGCCGGGAUAAAAGUGGAGGGGGCGG [C20A C27G]	0.0759
AACACUGCCAAUGCCGGUUCCAAGCCCGGAUAAAACUGGAGGGGGCGG [C19U G36C]	0.129
AACACUGCCAAUGCCGGUUCCAAGCCCGGAUAAAAGUGGAGGGGGCCG [C19U G47C]	0.235
AACACUGCCAAUGCCGGUCACAAGCACGGAUAAAAGUGGAGGGGGCGG [C20A C26A]	0.0889
AACACUGCCAAUGCCGGUCACAAGCUCGGAUAAAAGUGGAGGGGGCGG [C20A C26U]	0.0622
AACACUGCCAAUGCCGGUCACAAGCCCGGAUAAAAGUGGAGGGGGAGG [C20A C46A]	0.0788
AACACUGCCAAUGCCGGUCACAAGCCCGGAUAAAAGUGGAGGGGGUGG [C20A C46U]	0.154
AACACUGCCAAUGCCGGUUCCAAGCCGGGAUAAAAGUGGAGGGGGCGG [C19U C27G]	0.0975
AACACUGCCAAUGCCGGUUCCAAGCCAGGAUAAAAGUGGAGGGGGCGG [C19U C27A]	0.176
AACACUGCCAAUGCCGGUCACAAGCCCGGAUAACAGUGGAGGGGGCGG [C20A A34C]	0.102
AACACUGCCAAUGCCGGUGCCAAGCCCGGAUAAAAGUGCAGGGGGCGG [C19G G39C]	0.162
AACACUGCCAAUGCCGGUGCCAAGCCCGGAUAAAAGUGUAGGGGGCGG [C19G G39U]	0.118
AACACUGCCAAUGCCGGUCACAAGCCCGGAUAAAAGUGCAGGGGGCGG [C20A G39C]	0.0811
AACACUGCCAAUGCCGGUCACAAGCCCGGAUAAAAGUGUAGGGGGCGG [C20A G39U]	0.0846
AACACUGCCAAUGCCGGUUCCAAGCCCGGAUAAAAGUGGAGGAGGCGG [C19U G43A]	1.04
AACACUGCCAAUGCCGGUUCCAAGCCCGGAUAAAAGUGGAGGUGGCGG [C19U G43U]	1.02

Variant	self-cleavage
AACACUGCCAAUGCCGGUUCCAAGCCCGGAUAAAAGUGGAGGGUGCGG [C19U G44U]	0.86
AACACUGCCAAUGCCGGUUCCAAGCCCGGAUAAAAGUGGAGGGAGCGG [C19U G44A]	1.03
AACACUGCCAAUGCCGGUUCCAAGCCCGGAUAAAAGUGGAGGGCGCGG [C19U G44C]	0.608
AACACUGCCAAUGCCGGUUCCAAGCCCGGAUAGAAGUGGAGGGGGCGG [C19U A33G]	0.889
AACACUGCCAAUGCCGGUUCCAAGCCCGGAUAAAAGUGGGGGGGGCGG [C19U A40G]	0.108
AACACUGCCAAUGCCGGUGCCAAGCCCGGAUAAAAGUGGAGGUGGCGG [C19G G43U]	0.685
AACACUGCCAAUGCCGGUUCCAAGCCCGGAUAAAGGUGGAGGGGGCGG [C19U A35G]	0.683
AACACUGCCAAUGCCGGUUCCAAGCCCGGAUAAAUGUGGAGGGGGCGG [C19U A35U]	0.972
AACACUGCCAAUGCCGGUUCCAAGCCCGGGUAAAAGUGGAGGGGGCGG [C19U A30G]	0.918
AACACUGCCAAUGCCGGUGCCAAGCCCGGAGAAAAGUGGAGGGGGCGG [C19G U31G]	0.467
AACACUGCCAAUGCCGGUGCCAAGCCCGGACAAAAGUGGAGGGGGCGG [C19G U31C]	0.492
AACACUGCCAAUGCCGGUUCCAAGCCCGAAUAAAAGUGGAGGGGGCGG [C19U G29A]	0.806
AACACUGCCAAUGCCGGUCACAAGCCCGGAUAAAAGUGGAGUGGGCGG [C20A G42U]	0.668
AACACUGCCAAUGCCGGUCACAAGCCCGGAUAAAAGUGGAGAGGGCGG [C20A G42A]	0.107
AACACUGCCAAUGCCGGUCACAAGCCCAGAUAAAAGUGGAGGGGGCGG [C20A G28A]	0.0974
AACACUGCCAAUGCCGGUCACAAGCCCUGAUAAAAGUGGAGGGGGCGG [C20A G28U]	0.0952
AACACUGCCAAUGCCGGUCACAAGCCCCGAUAAAAGUGGAGGGGGCGG [C20A G28C]	0.125
AACACUGCCAAUGCCGGUGCCAAGCCCGGAUAAAAGUGGAGGGGGCGU [C19G G48U]	0.218
AACACUGCCAAUGCCGGUGCCAAGCCCGGAUAAAAGUGGAGGGGGCGC [C19G G48C]	0.23
AACACUGCCAAUGCCGGUCACAAGCCCGUAUAAAAGUGGAGGGGGCGG [C20A G29U]	0.103
AACACUGCCAAUGCCGGUCACAAGCCCGCAUAAAAGUGGAGGGGGCGG [C20A G29C]	0.0857
AACACUGCCAAUGCCGGUUCAAAGCCCGGAUAAAAGUGGAGGGGGCGG [C19U C21A]	0.0697

Variant	self-cleavage
AACACUGCCAAUGCCGGUUCGAAGCCCGGAUAAAAGUGGAGGGGGCGG [C19U C21G]	0.107
AACACUGCCAAUGCCGGUUCCAAGUCCGGAUAAAAGUGGAGGGGGCGG [C19U C25U]	0.623
AACACUGCCAAUGCCGGUUCCAAGGCCGGAUAAAAGUGGAGGGGGCGG [C19U C25G]	0.176
AACACUGCCAAUGCCGGUUCCAAGCCCGGAUAAAAGUGGAUGGGGCGG [C19U G41U]	0.125
AACACUGCCAAUGCCGGUUCCAAGCCCGGAUAAAAGUGAAGGGGGCGG [C19U G39A]	0.28
AACACUGCCAAUGCCGGUUCCAAGCCCGGAUAAAAGUGCAGGGGGCGG [C19U G39C]	0.0962
AACACUGCCAAUGCCGGUUCCAAGCCCGGAUAAAAGUGUAGGGGGCGG [C19U G39U]	0.125
AACACUGCCAAUGCCGGUCACAAGCCCGGAUAAAUGUGGAGGGGGCGG [C20A A35U]	0.151
AACACUGCCAAUGCCGGUCACAAGCCCGGAUAAACGUGGAGGGGGCGG [C20A A35C]	0.191
AACACUGCCAAUGCCGGUCACACGCCCGGAUAAAAGUGGAGGGGGCGG [C20A A23C]	0.1
AACACUGCCAAUGCCGGUCACAAGCCCGGAUAAAAGUGGAUGGGGCGG [C20A G41U]	0.0817
AACACUGCCAAUGCCGGUCACAAGCCCGGAUAAAAGUGGACGGGGCGG [C20A G41C]	0.0888
AACACUGCCAAUGCCGGUUCCAAGCCCCGAUAAAAGUGGAGGGGGCGG [C19U G28C]	0.908
AACACUGCCAAUGCCGGUUCCAAGCCCGGAUAAAAGUGGAGUGGGCGG [C19U G42U]	0.142
AACACUGCCAAUGCCGGUUCCUAGCCCGGAUAAAAGUGGAGGGGGCGG [C19U A22U]	0.601
AACACUGCCAAUGCCGGUUCCCAGCCCGGAUAAAAGUGGAGGGGGCGG [C19U A22C]	1.15
AACACUGCCAAUGCCGGUUCCAAGCCCGGAUAAAAGUGGAGGGGCCGG [C19U G45C]	0.38
AACACUGCCAAUGCCGGUUCCAAGCCCGGAUAAAAGUGGAGGGGACGG [C19U G45A]	0.915
AACACUGCCAAUGCCGGUGCCAAGCCCGGAUAAAAGUGGAGGGCGCGG [C19G G44C]	0.27
AACACUGCCAAUGCCGGUGCCAAGCCCGGAUAAAAGUGGAGGGUGCGG [C19G G44U]	0.29
AACACUGCCAAUGCCGGUUCCAAGCACGGAUAAAAGUGGAGGGGGCGG [C19U C26A]	0.116
AACACUGCCAAUGCCGGUUCCAAGCCCGGAUAAAAGUCGAGGGGGCGG [C19U G38C]	0.782

Variant	self-cleavage
AACACUGCCAAUGCCGGUUCCAAGCCCGGAUAAAAGUAGAGGGGGCGG [C19U G38A]	0.855
AACACUGCCAAUGCCGGUUCCAAGCCCGGAUAAAAGUUGAGGGGGCGG [C19U G38U]	0.36
AACACUGCCAAUGCCGGUGCCAAGCCCGGAUAAAAGUGGAGGGGGCAG [C19G G47A]	0.105
AACACUGCCAAUGCCGGUGCCAAGCCCGGAUAAAAGUGGAGGGGGCCG [C19G G47C]	0.193
AACACUGCCAAUGCCGGUCACAAGCCCGGAUACAAGUGGAGGGGGCGG [C20A A33C]	0.0903
AACACUGCCAAUGCCGGUCACAAGCCCGGAUAGAAGUGGAGGGGGCGG [C20A A33G]	0.116
AACACUGCCAAUGCCGGUGCCAAGCCCGGAUAAAAGAGGAGGGGGCGG [C19G U37A]	0.0632
AACACUGCCAAUGCCGGUGCCAAGCCCGGAUAAAAGCGGAGGGGGCGG [C19G U37C]	0.138
AACACUGCCAAUGCCGGUUCCAAGCCCGGAGAAAAGUGGAGGGGGCGG [C19U U31G]	0.956
AACACUGCCAAUGCCGGUUCCAAGCCCGGACAAAAGUGGAGGGGGCGG [C19U U31C]	0.971
AACACUGCCAAUGCCGGUUCCAAGCCCGGAAAAAAGUGGAGGGGGCGG [C19U U31A]	0.682
AACACUGCCAAUGCCGGUCACAAGACCGGAUAAAAGUGGAGGGGGCGG [C20A C25A]	0.0826
AACACUGCCAAUGCCGGUUCCAAGCCCGGAUAAUAGUGGAGGGGGCGG [C19U A34U]	0.56
AACACUGCCAAUGCCGGUCACAAACCCGGAUAAAAGUGGAGGGGGCGG [C20A G24A]	0.114
AACACUGCCAAUGCCGGUCACAAUCCCGGAUAAAAGUGGAGGGGGCGG [C20A G24U]	0.0913
AACACUGCCAAUGCCGGUCACAACCCCGGAUAAAAGUGGAGGGGGCGG [C20A G24C]	0.0912
AACACUGCCAAUGCCGGUCACGAGCCCGGAUAAAAGUGGAGGGGGCGG [C20A A22G]	0.0601
AACACUGCCAAUGCCGGUCACUAGCCCGGAUAAAAGUGGAGGGGGCGG [C20A A22U]	0.0761
AACACUGCCAAUGCCGGUCACAAGCCCGGACAAAAGUGGAGGGGGCGG [C20A U31C]	0.117
AACACUGCCAAUGCCGGUCACAAGCCCGGAGAAAAGUGGAGGGGGCGG [C20A U31G]	0.177
